{
  "source": "IntAct's records for PubMed 26188084",
  "parents": {"B1": {"name": "Serine/threonine-protein kinase PLK4 (Homo sapiens), O00444 (parent)", "chain": "MATCIGEKIEDFKVGNLLGKGSFAGVYRAESIHTGLEVAIKMIDKKAMYKAGMVQRVQNEVKIHCQLKHPSILELYNYFEDSNYVYLVLEMCHNGEMNRYLKNRVKPFSENEARHFMHQIITGMLYLHSHGILHRDLTLSNLLLTRNMNIKIADFGLATQLKMPHEKHYTLCGTPNYISPEIATRSAHGLESDVWSLGCMFYTLLIGRPPFDTDTVKNTLNKVVLADYEMPSFLSIEAKDLIHQLLRRNPADRLSLSSVLDHPFMSRNSSTKSKDLGTVEDSIDSGHATISTAITASSSTSISGSLFDKRRLLIGQPLPNKMTVFPKNKSSTDFSSSGDGNSFYTQWGNQETSNSGRGRVIQDAEERPHSRYLRRAYSSDRSGTSNSQSQAKTYTMERCHSAEMLSVSKRSGGGENEERYSPTDNNANIFNFFKEKTSSSSGSFERPDNNQALSNHLCPGKTPFPFADPTPQTETVQQWFGNLQINAHLRKTTEYDSISPNRDFQGHPDLQKDTSKNAWTDTKVKKNSDASDNAHSVKQQNTMKYMTALHSKPEIIQQECVFGSDPLSEQSKTRGMEPPWGYQNRTLRSITSPLVAHRLKPIRQKTKKAVVSILDSEEVCVELVKEYASQEYVKEVLQISSDGNTITIYYPNGGRGFPLADRPPSPTDNISRYSFDNLPEKYWRKYQYASRFVQLVRSKSPKITYFTRYAKCILMENSPGADFEVWFYDGVKIHKTEDFIQVIEKTGKSYTLKSESEVNSLKEEIKMYMDHANEGHRICLALESIISEEERKTRSAPFFPIIIGRKPGSTSSPKALSPPPSVDSNYPTRERASFNRMVMHSAASPTQAPILNPSMVTNEGLGLTTTASGTDISSNSLKDCLPKSAQLLKSVFVKNVGWATQLTSGAVWVQFNDGSQLVVQAGVSSISYTSPNGQTTRYGENEKLPDYIKQKLQCLSSILLMFSNPTPNFH", "partner": "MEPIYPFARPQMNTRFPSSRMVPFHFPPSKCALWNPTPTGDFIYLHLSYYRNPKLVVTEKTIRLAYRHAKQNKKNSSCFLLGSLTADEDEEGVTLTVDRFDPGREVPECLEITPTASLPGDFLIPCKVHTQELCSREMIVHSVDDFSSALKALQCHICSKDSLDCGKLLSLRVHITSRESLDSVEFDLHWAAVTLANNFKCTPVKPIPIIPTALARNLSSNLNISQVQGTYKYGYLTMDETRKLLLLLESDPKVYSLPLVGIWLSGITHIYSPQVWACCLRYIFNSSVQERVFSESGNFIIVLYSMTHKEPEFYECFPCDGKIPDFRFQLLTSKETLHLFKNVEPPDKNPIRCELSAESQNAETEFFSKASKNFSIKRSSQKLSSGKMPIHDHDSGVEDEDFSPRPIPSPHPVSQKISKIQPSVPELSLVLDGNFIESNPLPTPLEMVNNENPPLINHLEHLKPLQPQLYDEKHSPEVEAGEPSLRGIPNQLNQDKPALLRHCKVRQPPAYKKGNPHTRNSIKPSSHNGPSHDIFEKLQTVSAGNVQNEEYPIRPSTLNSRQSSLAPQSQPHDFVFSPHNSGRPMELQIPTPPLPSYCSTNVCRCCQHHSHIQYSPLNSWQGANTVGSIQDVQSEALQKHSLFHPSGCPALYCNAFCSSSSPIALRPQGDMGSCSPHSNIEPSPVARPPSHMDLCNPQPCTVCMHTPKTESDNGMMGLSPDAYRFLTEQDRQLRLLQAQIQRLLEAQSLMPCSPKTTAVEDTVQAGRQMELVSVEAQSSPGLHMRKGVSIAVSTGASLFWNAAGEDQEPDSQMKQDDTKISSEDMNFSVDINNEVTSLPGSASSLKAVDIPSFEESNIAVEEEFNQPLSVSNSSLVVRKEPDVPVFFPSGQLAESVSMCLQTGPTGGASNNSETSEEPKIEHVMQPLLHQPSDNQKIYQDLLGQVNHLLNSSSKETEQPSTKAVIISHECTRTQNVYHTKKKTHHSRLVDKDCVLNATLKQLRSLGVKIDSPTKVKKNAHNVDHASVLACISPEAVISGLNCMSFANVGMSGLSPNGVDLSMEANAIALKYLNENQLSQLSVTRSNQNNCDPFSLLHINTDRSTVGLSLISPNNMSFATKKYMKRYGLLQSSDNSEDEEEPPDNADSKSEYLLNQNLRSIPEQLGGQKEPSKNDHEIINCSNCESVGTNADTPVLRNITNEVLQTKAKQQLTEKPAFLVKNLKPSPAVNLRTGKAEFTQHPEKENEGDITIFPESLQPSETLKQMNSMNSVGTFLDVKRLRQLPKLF"}, "B2": {"name": "SCL-interrupting locus protein (Homo sapiens), Q15468 (parent)", "chain": "B1 partner", "partner": "B1 chain"}},
  "data": [
    {"variants_of": "B1", "details": "with stil_human STIL", "values": [
      {"variant": "S285A;T289A", "effect of a mutation on the interaction": "with no effect"}
    ]},
    {"variants_of": "B2", "details": "with plk4_human PLK4, O00444", "values": [
      {"variant": "L733E;I740E;L743E", "effect of a mutation on the interaction": "with no effect"},
      {"variant": "Q737K;Q739E", "effect of a mutation on the interaction": "decreasing interaction strength"},
      {"variant": "L733D;I740K;L743D", "effect of a mutation on the interaction": "with no effect"},
      {"variant": "L733D;L743D", "effect of a mutation on the interaction": "decreasing interaction strength"},
      {"variant": "L733Y;L743Y", "effect of a mutation on the interaction": "with no effect"},
      {"variant": "L733D;L736E;I740K;L743D", "effect of a mutation on the interaction": "with no effect"},
      {"variant": "L733D;L736E;L743D", "effect of a mutation on the interaction": "with no effect"}
    ]}
  ]
}
